Test [1] concerns the target T1, recombinant human PTK7 (Acro Biosystems Cat. No. PT7-H52H3) (human, UniProt Q13308 31-704).
T1 construct: Bought recombinant protein; also called human PTK7 analyte
T1 sequence: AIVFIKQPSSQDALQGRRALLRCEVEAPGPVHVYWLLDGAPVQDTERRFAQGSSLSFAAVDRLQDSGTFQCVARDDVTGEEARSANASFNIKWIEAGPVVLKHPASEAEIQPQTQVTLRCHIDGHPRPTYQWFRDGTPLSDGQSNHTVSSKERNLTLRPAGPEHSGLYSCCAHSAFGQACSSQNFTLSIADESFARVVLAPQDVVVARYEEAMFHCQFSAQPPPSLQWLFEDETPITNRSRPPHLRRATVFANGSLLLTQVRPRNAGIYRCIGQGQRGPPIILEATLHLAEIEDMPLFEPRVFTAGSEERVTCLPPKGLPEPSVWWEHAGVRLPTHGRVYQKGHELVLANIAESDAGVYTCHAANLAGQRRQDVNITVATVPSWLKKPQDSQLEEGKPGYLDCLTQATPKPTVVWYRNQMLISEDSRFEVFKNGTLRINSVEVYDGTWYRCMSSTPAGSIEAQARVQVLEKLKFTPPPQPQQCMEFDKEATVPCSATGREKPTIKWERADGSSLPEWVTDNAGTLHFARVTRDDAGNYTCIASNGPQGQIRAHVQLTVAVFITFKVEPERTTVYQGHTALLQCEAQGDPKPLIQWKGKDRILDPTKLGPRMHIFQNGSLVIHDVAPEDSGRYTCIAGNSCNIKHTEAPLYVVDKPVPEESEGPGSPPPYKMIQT
Put plainly: SPR, Biacore 8K+, ADC captured by anti-human Fc, human PTK7 as analyte, 37 C, 1:1 model. Here is the method:
A Biacore 8K+ instrument (Cytiva, Marlborough, MA) was used to determine kinetics and affinity parameters for the binding interactions of ADCs binding to recombinant human PTK7 (Acro Biosystems Cat. No. PT7-H52H3, Newark, DE).
In each analysis cycle, a different ADC was captured on flow cell 2 of each channel by injecting a 5 μg/mL solution at 10 μL/min for 2 minutes. After capture, the same analyte was injected on flow cells 1 and 2 in all 8 channels for 2 minutes at 30 μL/min and dissociation was monitored for 10 minutes. After dissociation, all surfaces were regenerated with three consecutive 1-minute injections of 75 mM phosphoric acid at 10 μL/min. ADC capture and analyte cycles were repeated to obtain human PTK7 analyte binding of each ADC at analyte concentrations of 0, 2.47, 7.41, 22.2, 66.7, 200, and 600 nMs.
Sensorgram data were reference subtracted and blank subtracted, then globally fit with the default 1:1 binding model in Biacore Insight Evaluation Software v3.0.12.15655, as shown in Table 4.

For test [2], the target named is T2, human PTK-7 on cells (OV90-PTK-7, NCI-H446, OVCAR-3) (human, UniProt Q13308 31-1070).
T2 sequence: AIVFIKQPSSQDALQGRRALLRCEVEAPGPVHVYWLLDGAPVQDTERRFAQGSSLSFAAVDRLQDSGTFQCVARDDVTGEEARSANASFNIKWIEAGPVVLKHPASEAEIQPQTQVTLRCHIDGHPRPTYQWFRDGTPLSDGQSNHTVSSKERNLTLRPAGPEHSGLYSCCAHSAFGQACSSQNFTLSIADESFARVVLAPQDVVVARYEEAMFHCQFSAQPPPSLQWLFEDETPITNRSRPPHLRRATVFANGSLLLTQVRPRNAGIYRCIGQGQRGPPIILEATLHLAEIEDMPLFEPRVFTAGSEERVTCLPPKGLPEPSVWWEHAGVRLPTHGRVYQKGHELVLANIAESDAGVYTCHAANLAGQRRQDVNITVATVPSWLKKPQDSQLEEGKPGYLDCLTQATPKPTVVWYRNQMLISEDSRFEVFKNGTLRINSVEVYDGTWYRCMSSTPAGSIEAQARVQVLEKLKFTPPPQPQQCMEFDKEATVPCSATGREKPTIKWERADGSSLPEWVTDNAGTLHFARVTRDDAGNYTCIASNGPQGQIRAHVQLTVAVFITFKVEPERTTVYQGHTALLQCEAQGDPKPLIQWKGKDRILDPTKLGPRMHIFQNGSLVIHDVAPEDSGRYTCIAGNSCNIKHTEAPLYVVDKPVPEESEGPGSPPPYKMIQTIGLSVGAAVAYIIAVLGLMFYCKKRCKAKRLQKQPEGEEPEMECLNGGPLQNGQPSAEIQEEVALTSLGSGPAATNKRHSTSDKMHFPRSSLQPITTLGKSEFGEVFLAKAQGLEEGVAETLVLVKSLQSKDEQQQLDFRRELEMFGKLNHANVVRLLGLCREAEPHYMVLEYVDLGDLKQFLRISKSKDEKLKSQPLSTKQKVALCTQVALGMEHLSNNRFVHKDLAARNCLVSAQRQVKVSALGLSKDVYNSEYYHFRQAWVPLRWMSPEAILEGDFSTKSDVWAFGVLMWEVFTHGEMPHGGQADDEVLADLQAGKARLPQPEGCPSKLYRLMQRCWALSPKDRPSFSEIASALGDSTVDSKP
Kind of test: cell-based or functional assay.

A word on the Kd: it is the free concentration of one partner at which half of the binding sites on the other are occupied at equilibrium, for simple one-to-one binding. In general, koff refers to the first-order rate constant of dissociation. Usually kon stands for the second-order rate constant of association.

B1: Ab4-PSAR10-VA-exatecan (other)
heavy: EVQLVESGGGLVKPGGSLRLSCAASGFTFSSYSMNWVRQAPGKGLEWVSSIDSSSSFIYYADSVKGRFTISRDNAKNSLYLQMNSLRAEDTAVYYCARGTGLFDFWGQGTLVTVSSASTKGPSVFPLAPSSKSTSGGTAALGCLVKDYFPEPVTVSWNSGALTSGVHTFPAVLQSSGLYSLSSVVTVPSSSLGTQTYICNVNHKPSNTKVDKRVEPKSCDKTHTCPPCPAPEAAGGPSVFLFPPKPKDTLMISRTPEVTCVVVSVSHEDPEVKFNWYVDGVEVHNAKTKPREEQYNSTYRVVSVLTVLHQDWLNGKEYKCKVSNKALPAPIEKTISKAKGQPREPQVYTLPPSREEMTKNQVSLTCLVKGFYPSDIAVEWESNGQPENNYKTTPPVLDSDGSFFLYSKLTVDKSRWQQGNVFSCSVMHEALHNHYTQKSLSLSPGK
light: EIVLTQSPGTLSLSPGERATLSCRASQSFSSSYLAWYQQKPGQAPRLLIYGASSRATGIPDRFSGSGSGTDFTLTISRLEPEDFAVYYCQQYGRTPWTFGQGTKVEIKRTVAAPSVFIFPPSDEQLKSGTASVVCLLNNFYPREAKVQWKVDNALQSGNSQESVTEQDSKDSTYSLSSTLTLSKADYEKHKVYACEVTHQGLSSPVTKSFNRGEC
modifications: PSAR10-VA-exatecan linker-payload (Formula XV) on cysteine thiols after full reduction of the antibody (DAR 8 procedure); positions not stated for this ADC
notes: Antibody-drug conjugate of Ab4; also called Ab4-VA-Exatecan
On to B1, for which, in test [1], the Kd came out at 101 nM, the koff came to 0.0372 s⁻¹ and the kon was determined as 368000 M⁻¹ s⁻¹. In test [2], the “Cytotoxicity IC50, OVCAR-3 cells (CellTiter-Glo, 7 days)” value is 2.02 nM.

The record behind these values is patent publication US20250332277A1 (Eli Lilly, published 2025).
